One protein from paper PMC7664933, “Enzyme Properties of a Laccase Obtained from the Transcriptome of the Marine-Derived Fungus Stemphylium lucomagnoense” (International Journal of Molecular Sciences, 2020) can be followed below.

Holding throughout (experiment): spectrophotometric oxidation assay, Michaelis-Menten fit
Format in all cases: biochemical, Stemphylium lucomagnoense

Substrate in data set [1]: CCn1c(=NN=c2sc3cc(S(=O)(=O)O)ccc3n2CC)sc2cc(S(=O)(=O)O)ccc21
The conditions noted are these: 50 mM sodium acetate, pH 4.0, 30 °C, free enzyme, pH 4.0. From the text:
(§1) spectrophotometric oxidation assay, Michaelis-Menten fit on SlLac2

Substrate in data set [2]: COc1cccc(OC)c1O
As to conditions: 50 mM sodium acetate, pH 5.0, 30 °C, free enzyme, pH 5.0.
Excerpt: as §1

Substrate in data set [3]: COc1cc(C=NN=Cc2cc(OC)c(O)c(OC)c2)cc(OC)c1O
As to conditions: 50 mM sodium acetate, pH 6.0, 30 °C, free enzyme, pH 6.0.
Excerpt: as §1

B1: SlLac2 (Stemphylium lucomagnoense) (protein)
chain: AVLPVELPNPAPFTPKRDGLEERQSPASCINVGHTPKTRHCWAQGFTSSTDMYTSWPNTGVIRSYNLRLENTTCNPDGAGSRVCLLINGRFLGPTIVANWGDTIRVTVRNNLQSNGTSIHWHGFRMLNKNIQDGVNGITECALAPGDFKTYQFQATEYGTTWYHSHFSHQYGDGVVGTVIVNGPATANYDEDLGVMPITDWYYNTAFQAASIAFQNGQAGLGPPVGDNILINGTAKNAAGGGAWNRVTIQAGKRYRLRLVNTAVDTNMLVNLDGHPFQVIATDFVPINPYNTTHLQIGIGQRYDVIINANQTAGNYWFRATADGLCQSRNAREGRAIFTYQGQPVADPTSTAPTVPFTACLDPVTTPKIVKNVPSSTFAAQAKNLPVAFGPVAANGNTVLWTINGTSMIIDPGKPTIKYVAENNNSFPQSYNVVKVPATSASTWTYWVIQQAVGAPPIAHPIHLHGHDSYILGAGDGQFNAATHFSQLRFTNPPRRDVSQLKGNGWLVIAYPTDNPGAWLMHCHIAFHVGMGLSVQFLERKQQIVLPATGSEWYNNCNNWAAYKAGNTDVWPQDDSGLKKRWPPLIEDGSVL
notes: full-length mature laccase (592 residues; precursor 613 with 21-residue signal peptide replaced by A. niger glucoamylase 24-residue prepropeptide, correctly cleaved off); codon-optimised synthetic gene; secreted from Aspergillus niger D15#26; no tag; N-glycosylated, about 75 kDa by SDS-PAGE
On to B1, for which, in data set [1], the Km is 20.6 ± 3.9 µM, the catalytic constant (kcat) worked out at 0.153 ± 0.0026 s⁻¹ and the kcat/Km turned out to be 7420 M⁻¹ s⁻¹. Also, in data set [2], the Km amounted to 24 ± 3.9 µM, the kcat was found to be 0.0059 ± 0.0003 s⁻¹ and the kcat/Km is 240 M⁻¹ s⁻¹. Moreover, in data set [3], the Km worked out at 3.5 ± 0.57 µM, the kcat was 0.0074 ± 0.0002 s⁻¹ and the catalytic efficiency (kcat/Km) stood at 2110 M⁻¹ s⁻¹.
